Source: article PMC11259706 (The Journal of Biological Chemistry, 2024)
Primed or numbered codes have the meaning given here. Where no end group is shown, it is not given here. 5FAM′ = 5-carboxyfluorescein; Ahx = NCCCCCC(=O)O

Key:
[1] = molecular target: T1, PP5 (Homo sapiens, UniProt P53041); assay: pNPP colorimetric phosphatase assay; format: biochemical; details: peptide 100 μM
T1 construct: His-tag with TEV cleavage site (N, cleaved yes); made in house; host or cells: Escherichia coli BL21 (DE3)
T1 sequence (P53041 1-499): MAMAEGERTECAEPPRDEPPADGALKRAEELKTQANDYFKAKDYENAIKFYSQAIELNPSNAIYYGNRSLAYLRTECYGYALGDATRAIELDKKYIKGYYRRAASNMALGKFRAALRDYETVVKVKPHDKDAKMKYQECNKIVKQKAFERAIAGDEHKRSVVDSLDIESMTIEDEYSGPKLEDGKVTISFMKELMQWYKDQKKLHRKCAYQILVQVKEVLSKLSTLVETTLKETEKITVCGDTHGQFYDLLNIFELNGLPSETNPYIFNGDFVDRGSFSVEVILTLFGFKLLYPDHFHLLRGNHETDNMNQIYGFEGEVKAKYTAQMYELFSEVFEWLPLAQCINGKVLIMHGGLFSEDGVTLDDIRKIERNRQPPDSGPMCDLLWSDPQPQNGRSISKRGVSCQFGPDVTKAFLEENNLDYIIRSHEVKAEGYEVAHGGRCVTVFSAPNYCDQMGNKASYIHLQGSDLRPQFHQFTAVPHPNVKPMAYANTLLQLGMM
Description: To measure PP5’s enzyme activity, pNPP was used as substrate, as previously described ([24], [42]). Briefly, purified PP5 (1 μM) was incubated with peptides (100 μM) in 40 mM Hepes, 20 mM KCl, 5 mM MnCl2, and 1 mM DTT, pH 7.5 at 20 °C in 96-well microtiter plates (total volume 50 μl). Reactions were then initiated by addition of the pNPP substrate at concentrations from 0 to 60 mM. After 30 min, reactions were quenched with 2N NaOH (100 μl), and the release of p-nitrophenol was recorded at 410 nm (ε = 15,100 M − 1 cm−1) on a Molecular Devices M5 plate reader. Enzyme parameters (e.g., Km, kcat) were calculated using the Michaelis–Menten equation in Graphpad Prism 6.

[2] = molecular target: T2, full-length PP5 (Homo sapiens, UniProt P53041); assay: FP competition studies; format: binding; details: for affinity relative to natural MEEVD in competition FP: acetylated pentapeptides competing with Hsp90 tracer, n = 4
T2 construct: His-tag with TEV cleavage site (N, cleaved yes); made in house; host or cells: Escherichia coli BL21 (DE3)
T2 sequence (P53041 1-499): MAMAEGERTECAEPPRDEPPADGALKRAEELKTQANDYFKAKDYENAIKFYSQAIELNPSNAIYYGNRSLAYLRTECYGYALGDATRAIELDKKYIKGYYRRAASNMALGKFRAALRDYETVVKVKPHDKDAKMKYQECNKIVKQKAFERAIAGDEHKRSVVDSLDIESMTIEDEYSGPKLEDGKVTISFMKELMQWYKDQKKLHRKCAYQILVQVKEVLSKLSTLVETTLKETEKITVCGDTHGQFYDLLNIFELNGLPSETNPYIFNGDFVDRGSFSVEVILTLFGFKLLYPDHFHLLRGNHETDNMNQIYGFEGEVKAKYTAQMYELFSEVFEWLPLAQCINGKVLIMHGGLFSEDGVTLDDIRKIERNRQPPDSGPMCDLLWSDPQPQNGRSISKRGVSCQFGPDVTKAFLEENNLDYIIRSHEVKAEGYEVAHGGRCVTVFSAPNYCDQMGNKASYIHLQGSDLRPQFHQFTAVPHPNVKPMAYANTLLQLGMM
Description: (§1) These probes were stored as 10 mM DMSO stocks at −30 °C. […] Each well received PP5 (5 μl) from a 3-fold dilution series prepared using the assay buffer. […] The plate was shielded from light and allowed to incubate at room temperature for 15 min, a duration determined to reach equilibrium during assay development. All experiments were conducted in 384-well, black, low-volume, round-bottom plates (Corning; catalog number = 4511). […] Data analysis was carried out using GraphPad Prism 6.
Samples were incubated for 5 min prior to measurements. Results were analyzed as above.

[3] = molecular target: T2, full-length PP5; assay: Fluorescence polarization (FP) saturation binding of fluorescent tracers; details: for direct binding of tracer relative to natural sequence: FP direct binding, n = 4
Description: as §1

[4] = system: HEK293T cells; assay: Global translation assay; format: cell-based; details: 50 μg/ml, compared to DMSO control, three independent replicates
Description: HEK293T cells (ATCC) were cultured in Dulbecco’s Modified Eagle Medium supplemented with 10% fetal bovine serum and 1% penicillin/streptomycin. These cells were maintained at 37 °C/5% CO2 in a humidified incubator. Cells were negative for mycoplasma contamination (MicroSeq; ThermoFisher Scientific) at the start of the experiments, and they were used without further authentication.
The global translation assay (Abcam; ab273286) was used to measure protein synthesis according to the manufacturer’s specifications. Briefly, in this method, O-propargyl-puromycin is used to trap actively translating ribosomes, followed by addition of a fluorescent Click probe, such that suppression of translational is measured as a decrease in fluorescence. HEK293T cells or HEK293T cells overexpressing FLAG-PP5 were cultured as above. Cells were incubated with the supplied protein label reagent and incubated for 24 h, after which the cells were washed with culture media and fixed/permeabilized for 15 min in the dark. Click reactions were carried out for 30 min, and the plate fluorescence measured at Ex/Em 494/521 nm in a SpectraMax M5 multimode plate reader.

[5] = molecular target: protein phosphatase 5 (PP5), human, full-length (human) (UniProt P53041); assay: fluorescence polarisation; competition (Fig. 1B, C, E, F): unlabelled peptide varied, PP5 at a concentration equivalent to the Kd, tracer 20 nM (tracer not named for these panels), 5 min
[6] = molecular target: T3, protein phosphatase 5 (PP5), human, full-length (human, UniProt P53041 1-499); assay: fluorescence polarisation; saturation binding: tracer 20 nM, 3-fold dilution series of PP5; 50 mM Hepes, 75 mM NaCl, 0.001% Triton X-100, pH 7.4; room temperature, 15 min; details: both partners purified
T3 construct: protein phosphatase 5 (PP5), human, full-length, expressed from a pMCSG7 vector; source: E. coli BL21 (DE3), purified (Ni-NTA, TEV cleavage, size-exclusion chromatography); not shown: His-tag, N-terminal, cleaved
T3 sequence (looked up): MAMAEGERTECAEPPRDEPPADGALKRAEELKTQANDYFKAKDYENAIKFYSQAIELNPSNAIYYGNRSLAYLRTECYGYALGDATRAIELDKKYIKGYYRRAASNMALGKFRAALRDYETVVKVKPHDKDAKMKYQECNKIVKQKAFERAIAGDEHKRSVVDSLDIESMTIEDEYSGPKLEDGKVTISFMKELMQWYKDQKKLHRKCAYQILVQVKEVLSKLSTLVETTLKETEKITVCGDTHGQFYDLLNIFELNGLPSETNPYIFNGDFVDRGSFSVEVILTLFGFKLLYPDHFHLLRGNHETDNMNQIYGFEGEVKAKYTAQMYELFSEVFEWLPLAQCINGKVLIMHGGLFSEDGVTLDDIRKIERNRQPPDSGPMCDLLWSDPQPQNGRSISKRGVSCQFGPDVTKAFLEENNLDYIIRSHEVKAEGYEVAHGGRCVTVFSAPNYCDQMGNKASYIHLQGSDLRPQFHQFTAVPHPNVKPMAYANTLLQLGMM

[7] = molecular target: T3, protein phosphatase 5 (PP5), human, …; assay: cell-based or functional assay
[8] = molecular target: T4, protein phosphatase 5 (PP5), human, full-length (human, UniProt P53041 1-499); assay: FP
T4 chain: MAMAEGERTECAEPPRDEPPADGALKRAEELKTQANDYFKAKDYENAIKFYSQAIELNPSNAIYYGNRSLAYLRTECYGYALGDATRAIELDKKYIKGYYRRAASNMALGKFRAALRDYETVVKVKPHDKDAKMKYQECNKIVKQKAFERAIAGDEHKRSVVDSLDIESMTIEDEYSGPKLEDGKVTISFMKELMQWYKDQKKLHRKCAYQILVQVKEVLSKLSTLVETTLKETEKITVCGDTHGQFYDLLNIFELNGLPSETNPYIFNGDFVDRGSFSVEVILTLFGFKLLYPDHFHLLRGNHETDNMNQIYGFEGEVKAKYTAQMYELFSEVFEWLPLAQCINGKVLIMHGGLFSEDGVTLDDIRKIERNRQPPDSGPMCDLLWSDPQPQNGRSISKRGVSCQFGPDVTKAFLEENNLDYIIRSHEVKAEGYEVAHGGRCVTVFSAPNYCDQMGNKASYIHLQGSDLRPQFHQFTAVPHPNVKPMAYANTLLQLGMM

[9] = molecular target: T3, protein phosphatase 5 (PP5), human, …; assay: fluorescence polarisation; competition with the Hsp90 tracer (Fig. 2C): PP5 at a concentration equivalent to the Kd, tracer 20 nM, 5 min; details: both partners purified

For LSLLA, the “effect on PP5 enzyme activity” value ([1]; DMSO 1%) was “did not” and the “competition with ELP1 tracer for binding to PP5” value ([2]; tracer 5FAM-AHX-LSLLD, unlabeled peptide, three independent experiments in technical triplicates) was “completely suppressed binding”.

For “WDDLD [optimized acetylated pentapeptide]”, the “affinity relative to natural MEEVD in competition FP” value [2] was “tighter affinity than the natural MEEVD”.

In the case of “WEEVD [optimized acetylated pentapeptide]”, the “affinity relative to natural MEEVD in competition FP” value [2] is reported as “tighter affinity than the natural MEEVD”.

“Ac-GSGPTAEEVD [Hsp70 peptide, P5 isoleucine mutation]” was tested, and the Ki ([2]; read-out: Ki, FP competition (truncations and alanine scan)) was ~13600 nM.

5FAM-AHX-WDDID was tested, and the “direct binding of tracer relative to natural sequence” value [3] was “bound tighter than the natural sequence”.

5FAM-AHX-WDDPD was tested, and the “direct binding of tracer relative to natural sequence” value [3] was “bound tighter than the natural sequence”.

`C[C@@H]1C[C@@H]([C@H](O)CC2CC(=O)NC(=O)C2)C(=O)[C@@H](C)C1` [cycloheximide] showed a decrease in translation [4] of 40%.

In the case of “Hsp70 peptide with the P5 isoleucine replaced by alanine”, the Ki [5] is reported as 13600 nM.

With LSLLD [LSLLD] the “effect on Km of PP5” value ([1]; pNPP substrate) was “both the kcat and Km were improved” and the Kd ([3]; restates Fig. 5B, measured with tracer 5FAM-AHX-LSLLD, read-out: Kd of ELP1 C-terminal motif for PP5's TPR domain (restated)) was ~4000 nM.

DSDSD (fluorescent label (tracer)) [fluorescent tracer of the U520 C-terminal five amino acids] was tested, and the Kd [6] was > 100000 nM.

B1: Hsp70 tracer 5FAM-AHX-IEEVD (peptide)
peptide: {5FAM′-Ahx}-IEEVD
notes: also called Hsp70 IEEVD tracer; source: synthetic peptide, custom synthesized by GenScript
With B1 the Kd [6] was 941 ± 70 nM.

B2: fluorescent tracer 5FAM-AHX-WEEVD (peptide)
peptide: {5FAM′-Ahx}-WEEVD
notes: also called WEEVD tracer; source: synthetic peptide
B2 was tested, and the Kd [6] was 15 ± 10 nM.

With LSLLD [ELP1 C-terminal pentapeptide LSLLD (unlabelled)] the “kcat/Km of PP5 phosphatase activity on pNPP with peptide (100 μM); 0.49 μM^−1sec^−1 without peptide” value [7] was 1.28 μM^−1sec^−1.

In the case of TMYFA (fluorescent label (tracer)) [fluorescent tracer of the AGO1 C-terminal five amino acids (negative control)], the Kd [6] is reported as > 100000 nM.

B3: fluorescent tracer of the DDCP C-terminal sequence WKPVD (peptide)
peptide: WKPVD
modifications: also: fluorescent label (tracer), position not given here
notes: the label DDCP could not be tied to an entry; Probably 5FAM-AHX-labelled like the ELP1 tracer; also called DDCP tracer; source: synthetic peptide
With B3 the Kd [6] was > 100000 nM.

For Ac-WDDVD [optimized acetylated pentapeptide WDDVD], the Ki [8] was 30 nM and the “kcat of PP5 phosphatase activity on pNPP with peptide (100 μM); 2.5-fold” value [7] was 0.24 s⁻¹.

B4: fluorescent tracer 5FAM-AHX-WDDID (peptide)
peptide: {5FAM′-Ahx}-WDDID
notes: also called WDDID tracer; source: synthetic peptide
B4: binds [6].

B5: fluorescent tracer 5FAM-AHX-WDDPD (peptide)
peptide: {5FAM′-Ahx}-WDDPD
notes: also called WDDPD tracer; source: synthetic peptide
B5: binds [6].

B6: optimized acetylated pentapeptide WDDID (peptide)
peptide: Ac-WDDID
notes: optimized EEVD-like pentapeptide from the PSSCL screen; source: synthetic peptide
B6 was tested, and the binding result [9] was “binds” and the Ki [8] was 60 nM.

B7: optimized acetylated pentapeptide WDDLD (peptide)
peptide: Ac-WDDLD
notes: as for B6
B7: binds [9].

B8: optimized acetylated pentapeptide WDDPD (peptide)
peptide: Ac-WDDPD
notes: as for B6
In the case of B8, the binding result [9] is reported as “binds” and the Ki [8] is reported as 40 nM.

B9: fluorescent tracer 5FAM-AHX-WDDVD (peptide)
peptide: {5FAM′-Ahx}-WDDVD
notes: also called WDDVD tracer; source: synthetic peptide
With B9 the Kd [6] was 17 ± 10 nM.

B10: ELP1 tracer 5FAM-AHX-LSLLD (peptide)
peptide: {5FAM′-Ahx}-LSLLD
notes: C-terminal five amino acids of elongator acetyltransferase complex subunit 1 (ELP1; IKBKAP); also called LSLLD tracer; source: synthetic peptide
For B10, the Kd [6] was 4400 ± 800 nM.
